Molecular target: SARS-CoV-2 RBD-mFc (SARS-CoV-2, reference (Wuhan-Hu-1) by …, UniProt P0DTC2)
Experiment: flow cytometry on cells

B1: mAb-82 (antibody, V domains shown)
VH: QVQLVQSGAEVKKPGSSVKVSCKASGGTFSSYAISWVRQAPGQGLEWMGGIIPIFGTANYAQKFQGRVTITADESTSTAYMELSSLRSEDTAVYYCARGNDDSSGYYSHYYYGMDVWGQGTTVTVSS
VL: QTVVTQEPSFSVSPGGTVTLTCGLSSGSVSTSYYPSWYQQTPGQAPRTLIYSTNTRSSGVPDRFSGSILGNKAALTITGAQADDESDYYCVLYMGSGAVFGGGTQLTVL
binding result: binds
